Six variants from IntAct's records for PubMed 8626665 can be followed below.

The labels stand for the following.
B1: Transcription initiation factor IIA subunit 2 (Homo sapiens), P52657 (parent)
chain: MAYQLYRNTTLGNSLQESLDELIQSQQITPQLALQVLLQFDKAINAALAQRVRNRVNFRGSLNTYRFCDNVWTFVLNDVEFREVTELIKVDKVKIVACDGKNTGSNTTE
partner: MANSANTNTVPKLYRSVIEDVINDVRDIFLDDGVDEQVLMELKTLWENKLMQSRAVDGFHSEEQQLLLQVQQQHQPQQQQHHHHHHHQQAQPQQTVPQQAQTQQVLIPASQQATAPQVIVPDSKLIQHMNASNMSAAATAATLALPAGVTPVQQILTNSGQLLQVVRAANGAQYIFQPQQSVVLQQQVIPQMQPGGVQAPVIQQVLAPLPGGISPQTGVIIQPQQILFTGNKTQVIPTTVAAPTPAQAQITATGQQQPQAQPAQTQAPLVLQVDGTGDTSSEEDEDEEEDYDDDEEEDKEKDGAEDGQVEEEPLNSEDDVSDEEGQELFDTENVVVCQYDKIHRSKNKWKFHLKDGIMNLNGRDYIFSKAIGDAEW
B2: Transcription initiation factor IIA subunit 2 (Homo sapiens), P52657 (parent)
chain: B1 chain

In one assay the parent is B1. To be noted: with tf2aa_human GTF2A1, P52655.
MAYQLYRNTTLGNSLQESLDELIQSQQITPQLALQVLLQFDAAINAALAQRVRNRVNFRGSLNTYRFCDNVWTFVLNDVEFREVTELIKVDKVKIVACDGKNTGSNTTE [K42A]: the “effect of a mutation on the interaction” value is listed as “decreasing interaction”. Still for that read-out and setting: as for MAYQLYRNTTLGNSLQESLDELIQSQQITPQLALQVLLQFAKAINAALAQRVRNRVNFRGSLNTYRFCDNVWTFVLNDVEFREVTELIKVDKVKIVACDGKNTGSNTTE [D41A], the entry is “decreasing interaction”.

For MAYQLYRNTTLGNSLQESLDELIQSQQITPQLALQVLLQFDKAINAALAQRVRNRVNFRGSLNTYRFCDNVWTFVLNDVEFREVTELIKVDKVKIVACDGKNTGSNTTA [E109A], the “effect of a mutation on the interaction” value is on record as “decreasing interaction”.

Consider MAYQLYRNTTLGNSLQESLDELIQSQQITPQLALQVLLQADKAINAALAQRVRNRVNFRGSLNTYRFCDNVWTFVLNDVEFREVTELIKVDKVKIVACDGKNTGSNTTE [F40A], for which the “effect of a mutation on the interaction” value is reported as “decreasing interaction”.

In the next assay the parent is B2. To be noted: with tbp_human TBP.
As to MAYQLYRNTTLGNSLQESLDELIQSQQITPQLALQVLLQFDKAINAALAQRVRNRVNFRGSLNTARFCDNVWTFVLNDVEFREVTELIKVDKVKIVACDGKNTGSNTTE [Y65A], the “effect of a mutation on the interaction” value is given as “decreasing interaction”. For the variant MAYQLYRNTTLGNSLQESLAELIQSQQITPQLALQVLLQFDKAINAALAQRVRNRVNFRGSLNTYRFCDNVWTFVLNDVEFREVTELIKVDKVKIVACDGKNTGSNTTE [D20A], the “effect of a mutation on the interaction” value is given as “decreasing interaction”.
